First the molecules themselves.
B1: PSEC0256 (supernatant containing the product expressed from the clone of SEQ ID NO. 9) (protein)
chain: MAGHSMVLVEILDVNDNVPEVMVTSLSLPVQEDAQVGTVIALISVSDRDSGANGQVICSLTPHVPFKLVSTYKNYYSLVLDSALDRESVSAYELVVTARDGGSPSLWATARVSVEVADVNDNAPAFAQPEYTVFVKENNPPGCHIFTVSAWDADAQKNALVSYSLVERRVGEHALSSYVSVHAESGKVYALQPLDHEELELLQFQVSARDAGVPPLGSNVTLQVFVLDENDNAPALLATPAGSAGGAVSELVPRSVGAGHVVAKVRAVDADSGYNAWLSYELQPAAVGAHIPFHVGLYTGEISTTRILDEADAPRHRLLVLVKDHGEPALTSTATVLVSLVENGQAPKTSSRASVGAVDPEAALVDINVYLIIAICAVSSLLVLTLLLYTALRCSAPPTVSRCAPGKPTLVCSSAVGSWSYSQQRRQRVCSAESPPKTDLMAFSPSLQLSREDCLNPPSEPRQPNPDWRYSASLRAGMHSSVHLEEAGILRAGPGGPDQQWPTVSSATPEPEAGEVSPPVGAGVNSNSWTFKYGPGNPKQSGPGELPDKFIIPGSPAIISIRQEPTNSQIDKSDFITFGKKEETKKKKKKKKGNKTQEKKEKGNSTTDNSDQ
B2: PSEC0220 (supernatant containing the product expressed from the clone of SEQ ID NO. 5) (protein)
chain: LWWAVGSPLVMDPTSICRKARRLAGRQAELCQAEPEVVAELARGARLGVRECQFQFRFRRWNCSSHSKAFGRILQQDIRETAFVFAITAAGASHAVTQACSMGELLQCGCQAPRWRAPPRPSGLPGTPGPPGPAGSPEGSAAWEWGGCGDDVDFGDEKSRLFMDARHKRGRGDIRALVQLHNNEAGRLAVRSHTRTECKCHGLSGSCALRTCWQKLPPFREVGARLLERFHGASRVMGTNDGKALLPAVRTLKPPGRADLLYAADSPDFCAPNRRTGSPGTRGRACNSSAPDLSGCDLLCCGRGHRQESVQLEENCLCRFHWCCVVQCHRCRVRKELSLCL
B3: PSEC0129 (supernatant containing the product expressed from the clone of SEQ ID NO: 3) (protein)
chain: AFHASAVGLRSSDEQKQQPPNSFSQQHSETQGAEKPDPESSHSPPRYTDQGGEEEEDYESEEQLQHRILTAALEFVPAHGWTAEAIAEGAQVCIGEGGAT
B4: PSEC0242 (supernatant containing the product expressed from the clone of SEQ ID NO. 7) (protein)
chain: MMGLGNGRRSMKSPPLVLAALVACIIVLGFNYWIASSRSVDLQTRIMELEGRVRRAAAERGAVELKKNEFQGELEKQREQLDKIQSSHNFQLESVNKLYQDEKAVLVNNITTGERLIRVLQDQLKTLQRNYGRLQQDVLQFQKNQTNLERKFSYDLSQCINQMKEVKEQCEERIEEVTKKGNEAVASRDLSENNDQRQQLQALSEPQPRLQAAGLPHTEVPQGKGNVLGNSKSQTPAPSSEVVLDSKRQVEKEETNEIQVVNEEPQRDRLPQEPGREQVVEDRPVGGRGFGGAGELGQTPQVQAALSVSQENPEMEGPERDQLVIPDGQEEEQEAAGEGRNQQKLRGEDDYNMDENEAESETDKQAALAGNDRNIDVFNVEDQKRDTINLLDQREKRNHTL

Consider 4 molecules from patent publication US20050214813A1.

For this assay, the target named is Aβ1-28 consisting of 28 amino acid residues from the N-terminus of Aβ (UniProt P05067). Put plainly: cell-based or functional assay.
Chain of Aβ1-28 consisting of 28 amino acid residues from the N-terminus of Aβ (P05067 672-699): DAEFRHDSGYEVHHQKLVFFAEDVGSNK
For B1, the Fluorescence Intensity (thioflavin-T, Aβ1-28 aggregation after 24 hours, relative to the Aβ40-1 control taken as 100%) turned out to be 460%.
As for B2, the Fluorescence Intensity (thioflavin-T, Aβ1-28 aggregation after 24 hours, relative to the Aβ40-1 control taken as 100%) is 250%.
In the case of B3, the Fluorescence Intensity (thioflavin-T, Aβ1-28 aggregation after 24 hours, relative to the Aβ40-1 control taken as 100%) turned out to be 24%.
Take B4: the Fluorescence Intensity (thioflavin-T, Aβ1-28 aggregation after 24 hours, relative to the Aβ40-1 control taken as 100%) amounted to 16%.
